Measured values reported in the DeepSol protein solubility set.

Assay: soluble on expression in E. coli; label from the status in PepcDB or PDB records

Sequence	soluble on expression in E. coli
MGSDKIHHHHHHMASHNTTHQMKTLCSSCSLRELCLPVGLLPNELSQLDAVIRQSRRLKKGEYLFCVGEAFTSLFAIRSGFFKTTVASQDGRDQVTGFFMSGELIGMDGICSHVHSCDAVALEDSEVCELPFTHIEELGQNIPSLRTHFFRMMSREIVRDQGVMLLLGNMRAEERIAAFLLNLSQRLYSRGFAANDFILRMSREEIGSYLGLKLETVSRTLSKFHQEGLISVEHKHIKILNLQVLKKMVSGCSHAI	not soluble
MGSDKIHHHHHHMASLDVFHQDAFTTIQLTTAVDKYPFQPTGLGDLNIFEPDPIRTTALAVEQRQGKLVVVPFSERGQEGTQRTTEQREARYFKVPRIMHADTLYANEIQDIRAFGTESELMQVQAEVARRLNGPTGLTSNIEYTWEYHRLAAVQGMLLDADGTVKYNWFDEFGITPPSLVPFNLSAQTPNSLRPIVNGIRRTMARKAQGAFLPTTKIFALCGDLFYDELTNHTDVIRTYLNWSAASELRDDSQGAAFEAFPFAGVTWSNYRGSDDNTTLKIPDDEVHFFPVGAPGVFRVAYAPGESFEWVNTPGKPIYVIPIYDRDRNSFWKMEAYSYPLHICTRPEVLQKGHAGA	not soluble
MGSDKIHHHHHHMASPTVRRRQLSAILREMRKASGLSLDAVAARLEWSRAKVGHIETGQRKKPSVLEVKALMAEYGVTPEDPRYETVLMLTRQAQARGWWRRYDDLFPGSYIELEAEASEIRTYEAFVVPGLLQTPGYTRLLQQARLDRDPDDVERAVESRRKRQEIFDRTSPPAVYAIIEEHALERLRGTPDVLAEQVAHLLHMAGRNSVTLQVLRTRVGVHAGAMGPFVILDFPEPASPVVYLETYTDGLFLERREEIDQYRSLWDRIRDAALPPDRTVEFLRSLLTL	not soluble
MGSDKIHHHHHHMATLKRIWLALNPQEAAAWQALLTTAGLAADRQVDYTVGIFEGETLLATGSLSGNIIKEVAVTPATQHENLLAQVIQALLDRLDDDGVTHSFVYTKPTTVKFFLSLGFKQLAATDAVVLLERGYPNLTDYVASLEKQRRPEKPAAAIVMNANPITRGHAYLIETAAKVNPVVYVFVLSAERSLFTADERLALVRKVAARWPNVVVLPTNDYMVSNTTFPSYFLKERADADVAAVQARLDAALFKQAIAPVLGITRRYVGEEPLSPVTAIYNRELAATFGSAIELIVVPRLMIDGDVVSATRVRAAMAQQDWKTVQQLVYPEVYQEIKERSTHGN	not soluble
MGSDKIHHHHHHMATTESFAQTLAAKQPRLLAAFKHIIAQNHLAHAYLFAGMEGAGQPELAHWIAQRLFCLHINDGEPDGTCEECVRIANGSHPDIVTVAPEGQRIHVDQVRYLKAEFSKSAVEGNRKLFIINDAEKMTASAANSLLKFIEEPSGNVTALLLTTNKQLMLPTIISRTQVIEFPPLNAQALQQTFEQAGIAPNQAQMLRGLTNSVTQAQALLADDWLPQAAQALWRWFDQAVKGDPRSFVAVQVNLVGLAKDADHQLVMLDLIAALFQDLLQLHFEVATTALTFGQYQKELAGLTAEVSDEQLIAATELALTAKRQLASNISFQNVLEGLTLKLWPIFQTNA	not soluble
MGSDKIHHHHHHMAVECIKDKVTRYPERASYSDEDLVAMLDRNFTCTVSFIDGGIPYAIPMMLASEGKTIYLHGSMKSRIYGILKTGQLIAISLLEINGIVLAKEIKNNSINYVSALIFGRPYEIDDTEKKIEVFRLLTEKLVKGRRDNSIKPSYEDLNGVFVFAVKPETFSMKARTGPPHDTSTDDIWSGVLPIQHTISEAGENAPEYVKSLYGKRIFI	not soluble
MGSDKIHHHHHHMAVFSQYFGKLNQYKNALTQKVDNYWTLSCFQDVAAINPWLVPGQGRKTGSSIVLKNDVLVELGSPEAGSCSMTLYTNSPHQITDGWITLMGSDITEYTPKKLPFGQVIMVGGEHLTEEDYYYLLQNLNVSEMIEGYMIRSTAESIWCRISKDAAKNGFNFHVLGSVLNWHIKQILPKVKAVEIVFVTTTKEDIEELNQISKEVGEIGRRIKERIWREKGVDIYKCVPGGHCGACEDKTVCDTIRKIGAGR	not soluble
MGSDKIHHHHHHMAVKVLSIDLGATNGKIYEVELKDRLTVKEIKRFRTEGTFLPGKDREHFVWNLPGFYEEIKGVLEASDAQSVGVDTWGVDFALLDENGRLVSLPYHYRDVRTKGVMKKAFEVVPKDEIFQRTGIQFMEINTLYQLYSMVLSNDPFLKTTKHLLMIPDVFNFWLSGEMVSEYTIASTSQCYSVPDGEWAYDLLEKLSIPTEIFPKVVPPGTILGKCRVKKGINVIATACHDTASAVVAVPLEGEGIYISSGTWFLVGTELERPLLSKEALERNFTNEGGYGKIRFLKNATGMWLLEECNRIWKKDYSEIIESVRNVPGFQAFLDPDREEFLHPGNMPERIRNYLERTGQKILERIGEISRLIFESLAFNCRWIVEQIKELTGKRYGKIHVVGGAVRNDLLMSFIASATGKTVVAGPVDATPIGNALVQLITLGAIANINEARKIVKESFELKTFEPKNPELWSEKYEEWRRYKGMRV	not soluble
MGSDKIHHHHHHMAVPLPVSARKDTVVPVLMYHDVSNHFHDPFTISPALFAAHMEWLHAAGYRAVTVGEALAGRGATAGKMVVITFDDGYASFLDYVHPLLLQYGFSAAISVIGSHVGTWLERDGRRPMLSWDEYRYLAARRVEVGCHAYHLHAIERLRHASADELAEDLELFQKTMAREMGRRATLLAWPYGIYTSERVQIARQAGFVHILTSNEGYVDDGTDPGAIPRLNIDNRLDLVSFSNYLRGE	not soluble
MGSDKIHHHHHHMAYVPNPVNIGVVYTENAAVLVDSGLDESVPRKISRLLQKPPLYLINTHSHADHCGGNAFLKKRFSTRVFAPKMEKEIIENTVFEPFYLYGAYPPNELRNKFLMAEPSAVDEVIEEGTITIESVDLEIVPLSGHSTNQIGVAVDGVLFCADAVFSEETLRKHRIFVIYNVEKFLETLDFLEKTSYSYYVPSHGEVTRDIGELVEKNRKAVENIINAVLEITVNPLSTDELMKQLFDRFEITLENLTQYILYRSTVHAYLSFLLDRKEIEREFRNNVLVWRRC	not soluble
MGSDKIHHHHHHMDAILMSLMTALNEHLLINVYQRDTDDFYTGYVQVLGHDAVVLGTYNDSGIADGCALIAFSAIDQVEFAGDDLDSMNFRINLAQAQHFLTLQGQEKPLQFDATQNLIQQLATQAKANGQMVMVVVADDDAYLEGQVTAVAEDRFSMAIFNKFNYTDVRALQVDFSDILVMEFHGLDLKLETELVWQRDHLKHVATKLYQNDGQLAGVFQNALANNRLISVVPKGPEDQFFVGRVKAVNDRVVVLSLKDMAGQFGGYILLTLPSIQNVATASDYLQTISFYEKWDQTHHFSQQPVLNADREFDPNDDLIRTIISEAAGFERVVRIKVADSDEHFLGYPENVGETDFDLNLVGPDDGETAQIRYGQIREIAFGHIFAYLQEAQLKNAGR	not soluble
MGSDKIHHHHHHMDALEIHRFLKGKIRTALPVEKVDRETLSLLYTPGVADVARACAEDPEKTYVYTSRWNTVAVVSDGSAVLGLGNIGPYGALPVMEGKAFLFKAFADIDAFPICLSESEEEKIISIVKSLEPSFGGINLEDIGAPKCFRILQRLSEEMNIPVFHDDQQGTAVVVSAAFLNALKLTEKKIEEVKVVVNGIGAAGYNIVKFLLDLGVKNVVAVDRKGILNENDPETCLNEYHLEIARITNPERLSGDLETALEGADFFIGVSRGNILKPEWIKKMSRKPVIFALANPVPEIDPELAREAGAFIVATGRSDHPNQVNNLLAFPGIMKGAVEKRSKITKNMLLSAVEAIARSCEPEPERIIPEAFDMKVHLNVYTAVKGSA	not soluble
MGSDKIHHHHHHMDCNGSGGSSDDDKPLHHDGGVRMKFFRSVGEVFGYSPFRSLAQHARMCGRAVGLLQQQFEALRRGNYEEVEELREEIDELEHHADQIKEEIRGNVTKSLMLPVDRHDLLEFLKVQDDILNNCEHVGHMVTFRKVSAPEDVWDEFLVLLSKLMEIVNNYEEMVERIMQLVETSFSKKEVNRALEYVPIIEQLEHECDLIQIGLHTKLFNLENSNPLDIQLMVTWVVHLGYVANAAARASDRFRIMILGR	not soluble
MGSDKIHHHHHHMDEFDYVRRKLIERILHLTEKQPVVRPLPGLTVGRRESPTEPSTYILPPSICIAVQGAKRVLIGEEYYVYDVENFLLNSFDVPVVAQVIEASKEKPYIGMTWEIDMEILMEIVVEQKLNTRPITSSRGTSLGKVTHQLLDAFRRMLELLDEPEHISALLPVIKKEIIYRLLVSEQGPRLIQIALSGKNDVITALNYLKEHFNESVNMKRLAEMVGMSVSTFYQNFKILTGMTPLQYQKKLRLCEARKLLMAGSDVTTAAYQVGYESLSQFSREYKRFFGVSPSQDAKKLKEEPYTRILY	not soluble
